Data taken from paper PMC10325903, “Prediction of cooperative homeodomain DNA binding sites from high-throughput-SELEX data”.

Molecular target: Bsx HD fragment (UniProt Q810B3 84-193)
Assay: EMSA; EMSA, 34 nM IRDye700 probe, room temperature 20 min, 4% polyacrylamide gel 150 V 2 h; binding buffer as in cited ref 35 (not given)
Details: protein: recombinant; tags: N-terminal 6xHis (pET-14b or pET-14P; may be cleaved); chain copies: 2; label: 5' IRDye700 on bottom strand; blunt

Bsx HD fragment, sequence (Q810B3 84-193): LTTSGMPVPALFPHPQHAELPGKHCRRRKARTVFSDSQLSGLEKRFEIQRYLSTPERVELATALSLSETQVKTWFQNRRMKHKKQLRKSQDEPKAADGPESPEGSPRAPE

Binder	cooperativity factor (tau)
Bsx_SELEX_1 (dsDNA) DNA 1: TATGAAATCAATTATCTCATTAAGTTCGTAGTGCGGGCGTGGCT DNA 2: AGCCACGCCCGCACTACGAACTTAATGAGATAATTGATTTCATA	9.8 ± 1 Tau cooperativity factor
Bsx_SELEX_1+1 (dsDNA) DNA 1: TATGAAATCAATTATCGTCATTAAGTTCGTAGTGCGGGCGTGGCT DNA 2: AGCCACGCCCGCACTACGAACTTAATGACGATAATTGATTTCATA	0.9 ± 0.3 Tau cooperativity factor
